Tests used:
[1] = target: T1, HB-EncD60^TEVK138^TEV-His
T1 chain: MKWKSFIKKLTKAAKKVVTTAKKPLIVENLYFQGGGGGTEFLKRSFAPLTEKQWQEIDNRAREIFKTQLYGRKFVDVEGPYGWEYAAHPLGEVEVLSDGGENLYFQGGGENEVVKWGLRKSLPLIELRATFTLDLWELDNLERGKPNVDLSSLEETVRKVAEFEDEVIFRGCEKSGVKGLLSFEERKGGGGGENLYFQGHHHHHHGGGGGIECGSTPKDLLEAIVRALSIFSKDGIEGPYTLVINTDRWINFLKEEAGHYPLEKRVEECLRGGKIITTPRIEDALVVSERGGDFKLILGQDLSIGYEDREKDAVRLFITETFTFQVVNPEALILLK

[2] = target: T2, Ap-EncD60^TEVK138^TEV-His
T2 chain: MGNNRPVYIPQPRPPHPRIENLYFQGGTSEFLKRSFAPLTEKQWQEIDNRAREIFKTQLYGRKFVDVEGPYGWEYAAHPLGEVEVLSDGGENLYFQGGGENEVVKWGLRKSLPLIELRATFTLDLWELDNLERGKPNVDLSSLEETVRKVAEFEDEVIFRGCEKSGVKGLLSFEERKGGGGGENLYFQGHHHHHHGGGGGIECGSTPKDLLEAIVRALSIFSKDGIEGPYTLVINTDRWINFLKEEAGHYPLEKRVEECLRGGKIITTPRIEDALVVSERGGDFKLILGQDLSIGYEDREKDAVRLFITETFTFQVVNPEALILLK

[3] = target: T3, HB-EncK138^TEV-His with a GT linker between the TEV site and the N-terminus of Enc
T3 chain: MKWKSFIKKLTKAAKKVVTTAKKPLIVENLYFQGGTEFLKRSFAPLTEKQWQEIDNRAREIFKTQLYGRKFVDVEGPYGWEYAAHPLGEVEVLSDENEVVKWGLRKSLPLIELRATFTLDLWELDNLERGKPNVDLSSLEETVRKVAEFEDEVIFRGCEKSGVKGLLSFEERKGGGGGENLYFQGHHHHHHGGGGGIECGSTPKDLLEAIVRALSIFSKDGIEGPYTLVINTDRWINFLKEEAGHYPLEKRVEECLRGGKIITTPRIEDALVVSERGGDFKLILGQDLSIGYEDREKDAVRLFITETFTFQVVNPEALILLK

HB-EncK138^TEV-His = target: T4, HB-EncK138^TEV-His
T4 chain: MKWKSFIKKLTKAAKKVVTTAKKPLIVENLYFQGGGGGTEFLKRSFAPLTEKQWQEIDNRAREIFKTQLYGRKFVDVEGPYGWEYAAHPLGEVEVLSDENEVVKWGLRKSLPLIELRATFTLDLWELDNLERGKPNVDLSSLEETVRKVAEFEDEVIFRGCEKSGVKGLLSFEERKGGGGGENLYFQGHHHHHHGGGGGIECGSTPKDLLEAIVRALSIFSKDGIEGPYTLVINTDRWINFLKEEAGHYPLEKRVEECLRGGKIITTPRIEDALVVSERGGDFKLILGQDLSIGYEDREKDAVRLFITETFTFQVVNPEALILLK

[4] = target: T5, Ap-EncK71^TEVK138^TEV-His
T5 chain: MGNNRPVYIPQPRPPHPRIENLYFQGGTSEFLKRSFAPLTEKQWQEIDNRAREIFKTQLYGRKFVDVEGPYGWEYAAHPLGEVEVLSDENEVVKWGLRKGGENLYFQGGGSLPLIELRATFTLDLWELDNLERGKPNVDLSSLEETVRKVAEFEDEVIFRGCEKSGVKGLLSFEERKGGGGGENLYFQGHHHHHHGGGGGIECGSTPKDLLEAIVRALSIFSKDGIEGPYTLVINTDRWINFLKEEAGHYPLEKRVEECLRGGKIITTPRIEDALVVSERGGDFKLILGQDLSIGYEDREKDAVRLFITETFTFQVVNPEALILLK

[5] = target: T6, HB-EncV57^TEVK138^TEV-His with a GT linker between the TEV site and the N-terminus of Enc
T6 chain: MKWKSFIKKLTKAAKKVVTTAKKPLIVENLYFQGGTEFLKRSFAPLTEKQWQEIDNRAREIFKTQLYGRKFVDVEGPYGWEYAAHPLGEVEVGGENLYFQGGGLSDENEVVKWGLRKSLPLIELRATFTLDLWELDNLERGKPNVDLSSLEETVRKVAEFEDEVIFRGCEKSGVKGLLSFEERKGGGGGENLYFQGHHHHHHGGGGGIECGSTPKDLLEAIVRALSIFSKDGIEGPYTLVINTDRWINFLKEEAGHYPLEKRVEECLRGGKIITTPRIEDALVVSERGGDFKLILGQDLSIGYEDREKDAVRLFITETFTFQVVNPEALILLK

Ap-EncK138^TEV-His = target: T7, Ap-EncK138^TEV-His
T7 chain: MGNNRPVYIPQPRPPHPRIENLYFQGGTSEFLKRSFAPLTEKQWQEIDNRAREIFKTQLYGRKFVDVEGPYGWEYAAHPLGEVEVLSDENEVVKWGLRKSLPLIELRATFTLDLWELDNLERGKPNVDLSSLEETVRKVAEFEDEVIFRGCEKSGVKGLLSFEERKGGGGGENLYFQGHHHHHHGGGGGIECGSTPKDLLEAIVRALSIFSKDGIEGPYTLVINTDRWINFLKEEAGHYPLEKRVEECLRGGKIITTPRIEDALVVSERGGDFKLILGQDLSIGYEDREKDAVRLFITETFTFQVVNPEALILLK

[6] = target: T8, HB-EncV57^TEVK138^TEV-His
T8 chain: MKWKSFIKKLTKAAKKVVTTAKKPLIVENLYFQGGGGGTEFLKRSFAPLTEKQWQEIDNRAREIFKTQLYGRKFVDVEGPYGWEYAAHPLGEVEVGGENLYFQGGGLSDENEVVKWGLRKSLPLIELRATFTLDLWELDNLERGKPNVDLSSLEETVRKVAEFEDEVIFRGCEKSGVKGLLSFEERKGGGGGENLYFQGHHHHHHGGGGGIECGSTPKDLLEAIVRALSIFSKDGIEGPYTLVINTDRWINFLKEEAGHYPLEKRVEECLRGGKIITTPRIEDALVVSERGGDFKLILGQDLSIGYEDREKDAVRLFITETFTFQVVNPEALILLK

[7] = target: HB-EncK138^TEV-His, EncD60^TEVK138^TEV-His, and HB-EncV57^TEVK138^TEV-His
[8] = target: T9, HB-EncD60^TEVK138^TEV-His with a GT linker between the TEV site and the N-terminus of Enc
T9 chain: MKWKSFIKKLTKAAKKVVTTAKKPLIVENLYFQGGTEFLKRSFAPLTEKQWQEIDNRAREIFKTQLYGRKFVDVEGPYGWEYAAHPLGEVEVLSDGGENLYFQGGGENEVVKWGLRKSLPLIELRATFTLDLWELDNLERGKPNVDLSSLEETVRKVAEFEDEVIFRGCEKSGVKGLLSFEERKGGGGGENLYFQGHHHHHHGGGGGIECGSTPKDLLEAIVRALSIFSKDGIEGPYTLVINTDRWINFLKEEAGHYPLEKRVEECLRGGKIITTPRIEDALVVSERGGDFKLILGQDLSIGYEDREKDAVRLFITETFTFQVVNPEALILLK

B1: TEV protease (protein)
chain: GESLFKGPRDYNPISSTICHLTNESDGHTTSLYGIGFGPFIITNKHLFRRNNGTLLVQSLHGVFKVKNTTTLQQHLIDGRDMIIIRMPKDFPPFPQKLKFREPQREERICLVTTNFQTKSMSSMVSDTSCTFPSSDGIFWKHWIQTKDGQCGSPLVSTRDGFIVGIHSASNFTNTNNYFTSVPKNFMELLTNQEAQQWVSGWRLNADSVLWGGHKVFMSKPEEPFQPVKEATQLMNELVYSQ
For B1, the “release of HBCM2 peptide after TEV protease digestion (densitometry)” value (“release of HBCM2 peptide … (densitometry)” below) [1] was “released fewer peptide per fusion protein”, the “release of HBCM2 peptide after TEV protease digestion (overnight, 4 C; Tris-Tricine gel)” value (shortened to “release … (overnight, 4 C; Tris-Tricine gel)”) [1] was “All constructs were found to at least partially release HBCM2 peptide” and the “TEV protease digestion, SDS-PAGE and anti-TEV site Western blot (up to 20 h at 30 C)” value (from here on “TEV protease digestion … (up to 20 h at 30 C)”) [2] was “not well digested by TEV protease”. For the same protein, the “release of HB peptide after TEV protease digestion (SDS-PAGE)” value (“release of HB peptide” below) [3] was “did not result in detectable release of HB peptide by SDS-PAGE”, the “release of HBCM2 peptide … (densitometry)” value (HB-EncK138^TEV-His) was “released fewer peptide per fusion protein” and the “release … (overnight, 4 C; Tris-Tricine gel)” value (HB-EncK138^TEV-His) was “All constructs were found to at least partially release HBCM2 peptide”. For the same protein, the “TEV protease digestion … (up to 20 h at 30 C)” value [4] was “construct 125 (Ap-Encap(K71, K138)) is digested by TEV protease to near completion”, the “release of HB peptide” value [5] was “did not result in detectable release of HB peptide by SDS-PAGE” and the “TEV protease digestion … (up to 20 h at 30 C)” value (Ap-EncK138^TEV-His) was “not well digested by TEV protease”. The “release of HBCM2 peptide … (densitometry)” value [6] was “released fewer peptide per fusion protein”, the “release … (overnight, 4 C; Tris-Tricine gel)” value [6] was “All constructs were found to at least partially release HBCM2 peptide” and the “relative HB/HB-Enc ratio (densitometry after TEV protease digestion)” value [7] was “a relative HB/HB-Enc ratio of 0.26 to 0.56”. The “release of HB peptide” value [8] was “did not result in detectable release of HB peptide by SDS-PAGE”.
